Assay [1] has as its target epidermal growth factor receptor (EGFR) (human) (UniProt P00533). Kind of assay: 125I-labelled conjugate on A431 cells, against unmodified matuzumab.
Assay [2] shares this target. Kind of assay: 125I-labelled conjugate on EGFR-positive A431 cells, 37 C, gamma counting (membrane bound plus internalized).

In turn, “mAb-dTAT (matuzumab conjugated to dendritic tetravalent TAT (47-60)) (antibody)” had a fold of the binding percentage of the unmodified mAb in assay [1] of 3 fold.
With “mAb-dPenetratin (matuzumab conjugated to dendritic tetravalent penetratin) (antibody)”, the fold of the binding percentage of the unmodified mAb in assay [1] turned out to be 3 fold. Besides, the % of the applied dose bound (% of applied dose per 10^6 cells) in assay [2] was found to be 68.
For “mAb-dSynB1 (matuzumab conjugated to dendritic tetravalent SynB1) (antibody)”, the % of the applied dose bound (% of applied dose per 10^6 cells) in assay [2] came to 47.
In assay [1], “mAb-dR9 (matuzumab conjugated to dendritic tetravalent R9) (antibody)” yielded a fold of the binding percentage of the unmodified mAb of 4.2 fold. Further, in assay [2], the % of the applied dose bound (% of applied dose per 10^6 cells) came to 92.
As for “mAb-dMTS (matuzumab conjugated to dendritic tetravalent MTS) (antibody)”, the fold of the binding percentage of the unmodified mAb in assay [1] turned out to be 3 fold.

The values above are taken from patent US20150297742A1.
